Data taken from the nanobody polyreactivity screen of Harvey et al. (2022).

Assay: yeast display, Sf9 membrane polyspecificity reagent, FACS + sequencing; frameworks hold sequencing errors
In short: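 After 36–48 hours of galactose induction, yeast (Saccharomyces cerevisiae BJ5465) displaying a synthetic nanobody library were stained at 4 °C for 1 hour with 10% biotinylated, detergent-solubilized Sf9 membrane reagent. Streptavidin microbeads enriched the stained cells before FACS sorting into low and high (top ~1%) gates on anti-HA and streptavidin fluorescence. Each clone's polyreactivity label reflects its gate of origin.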

Row | Sequence | polyreactivity (PSR sort gate)
1 | QGQLVESGGGLVQAGGSLRLSCAASGSTFLTNTMGWYRHAPGKERELVAAITLRGGRTYYADSVKGRFTISRDNAKNTVYVQMNSLKPEDTAVYYCTARNYYYTSDRDYWGQGTQVTVSS | low polyreactivity
2 | QGQLVESGGGLVQAGGSLRLSCAASGSTLVYNDMGWYRQAPGKEREFVAAISISGTSTYADSVKGRFTISRDNAKNTVYLQMNSLKPEDTAVYWGQGTQVTVSS | low polyreactivity
3 | QGQLVESGGGLVQAGGSLRLSCAASGTTFTKYAMGWYRPAPGKERELVATISQSSGRTYYADSVKRRFTISRDNAKNTVYLQMNTLKPEDTAVYYCAARYGYAVYYYGTPVRRYYYWGQGTQVTVSS | high polyreactivity
4 | QGQLVESGGGLVQAGGSLRLSCAASVRTFYKYAMGWYRQAPGKERELVATITSGGSTNYADSVKGRFTISRDNAKNTVYLQMNSLKPEDTAVYYCAARGHIYKIRDPYWTHDYWGQGTQVTVSS | low polyreactivity
5 | QGQLVESGGGLVQAGGSLRLTCPPSGFTFRTNAMGWYRQAPGKERELVAAISYSGGSTYYADSVKGRFTISRDNAKNTVYFQMNSLKPEDTAVSYCAARAAGSQHDYWGQGSQVTVSS | high polyreactivity
6 | QGQLVESGGGLVQAGGSLSLSCAASGSIFQGYAMGWYRQAPGNEWEFVAAISESDGSTYYADSVKGRCTISRDNAKNTVYLQMNSLKPEDTAVYYCAADKQAYVTDDYWGQGTQVTVSS | high polyreactivity
7 | QGQLVESGGGLVQAGVSLRLSCAASGSIFGFYGMGWYRQAPGKERELVAAISYRGGNTYYADSVKGRFTSSRDNAKNTVFLQKNSLKPEDTAVYYCNSMWKHGAYRGAYGYWGQGTQVTVSS | high polyreactivity
8 | QGQLVESGGGVVQAGGSLRLSCAASGRIFYRNAMGWYRQAPGKVRELVAAINWSGGSTYYADSVKGRFTISRDNAKNTVYLQMNSLKPEDTAVYYCAARFVRYPSKYDYWGQGTQVTVSS | high polyreactivity
9 | QGQLVESWGGLVQAGGSHRLSCAASGRIFVYYAMGWYRQAPGKERELVAGMTGGGNTYYAYSVKVLFTISRDNAKNTGYLQKNSLKPEDTAVYYCAADPIRYRSRHKYGYWGQGTQVTVSS | low polyreactivity
10 | QGQLVVSGGGLVQAGGSLRLSCAASGSILTRNAMGWYRQAPGKEMELVAAITGSGGRTYYADSVKGRFTISRDNAKKTFYLQMKSLKPEDTAVYYCATRYGREDYWGQGTQVNVSS | high polyreactivity
11 | QGQRVESGGGLVQAGASLRLSCAASGFIFWEYAMGWSRQAPGKERELVAAISDSGGDTYYADSVKGRFTISRDNAKNTVYLEMHSLKPEDSAVYFCAADVELWVFRGQQYDYWGQGTQVTVSS | low polyreactivity
12 | QGQRVESGGGLVQAGGSLRISCAASGRTVGRYVMGWYRQEPGKERELVARIRGSTTSTYYADSVKGRFTISRDNAKNTVYLQMNSLKAEDTAVYYCAASYSPFASSYSYDYWGQGTQVTVSS | high polyreactivity
13 | QGQRVESGGGLVQAGGSLRLTCAPSGRTFTGYAMGWYRQATGKARELVAGINWSTGSTYYADSVKGRFTISRDNAKNTVYLQMNSLKPEDTAVYYCAAGYYYYGNGRIVQYEYWGQGTQVTVSS | high polyreactivity
14 | QHQHVESGGGLDQAGGSLRLSCAASGSTFQIYAMGWYRQAPGKERELVAAIDFSGGSTYYADSVKGRFTISRDNAKYTVYLQMNSLKQEDTAVYYCAADLALYSHFGEYEYWGQGTQVTVSS | low polyreactivity
15 | QHQLVESGGGLVQAGGSLRLSCAASGRTFHRNAKGWYRQAPWQERELVAAITGSGGSTYYADSVKGRFTISRDNAKNTVYLQMYSLKPEDTAVYYCATYSYPERTGGQRTHYYWGQGTQVTVSS | high polyreactivity
16 | QIQLVESGGGFVQAGGSLRLSCAASGFTFHYYAMGWYSQAPGKERELGAAISWSSGRTYYADSVKGRFTISRDNAQNTVYLQMNSLKPEDTAVYSCAASSYNRGDYWGQGTQVTVSS | low polyreactivity
17 | QLHLVESGGGLVQAGGSLRLSCAASGLTFDQYAMGWYRQAPGKERELVAAISGSDSTYYADSVKGRFTISRDNAKNTVYLQMNSLKPEDTAVYYCAASGDYVNIITGERFDARLYDYWGQGTQVTVSS | low polyreactivity
18 | QLHLVESGGGLVQAGGSLRLSCAASVSIFNIYAMGWYRQAPGKERELVATITGIADSTYYADSVKGRFTISRDNAKNTVYLQMNSLKPEDTAVYYCAADKYVAEYDYWGQGTQVTVSS | low polyreactivity
19 | QLKLVESGGGLVQAGASLRLSCAASGSIFYGYTMGWYRQAPGKERELVAGISTYYADSVKGRFTISRDNAKNTVYLQMNSLKPEDTEVYYCAADYSSTTSEYDYWGQGTQVTVSS | low polyreactivity
20 | QLQHVESGGCLDQAGGSLRLSCAASGGIIPYRGWYRQAPGKQRELVASITSSGGSTYYADSVKGRFTISRDNAKNTVYLQMNSLKPEDTAVFYCAADPDFYKSVQYDYWGQGTQVTVSS | low polyreactivity
21 | QLQHVESGGGLVQAGGRLRLSCAASGFTFYYYAMGWYRPEPGKERELVAAISSTGGSTYYADSVKGRFTISRDNAKNTVYLQMNSMKPEDTAVYYCNAACYRYPGDYDYWGQGTQVTVSS | high polyreactivity
22 | QLQIVESGGGLVQAGGSLRLSCAASGRIFSYNAMGWYIQAPGKARELVAAITFSGGGTYYADSVKGRFTISRDNAKNTVYLQMNSLNPEYTAVYYCNKVSYGYSTYGYWGQCTQVTVSS | low polyreactivity

Row | Sequence | polyreactivity (PSR sort gate)
23 | QLQIVESGGGLVQAGGSLRLSCAASGSTFSYNAMGWYRQAPRKQRELVASISTSGGSTYYADSVKGRFTISRDNANNTVYLEMNSLKPEDTAVYYCNAPTSDIYSDFDSWGQGTQVTVSS | low polyreactivity
24 | QLQLAESGGGLVQAGGSLRLSCAASGSTFEINAMGWYRQAPWKERELVAAISKRGGNTYYADSVKGRFTISRDNAKNTVYLQMNSLKPEVTAVYYCSADSDSHYFFYVRWVGERYEYWGQGTQVTVSS | high polyreactivity
25 | QLQLEESAGGLVQAGGSLRLSCAASGSIFSDNAMGWYRQAPGKERELVASINSGGSTNYADSVKGRFTISRDNAKNTVYLQMNSLKPEYTAVYYFNKEDEVVYPGYPNGGMDYWGQGTQVTVSS | low polyreactivity
26 | QLQLEESGGGLVQAGGSLRLSCAASGRTFRYYSMGWYRHAPGKEREMVAAISSSGDRTYYADSVKGRFTISRDNATNTVYIQMNSLKPEDTAVYYCANVPYYSRPHDYWGQGTQVTVSS | high polyreactivity
27 | QLQLEESGGGLVQAGGSLRLSCAASGSIFDDYAMGWYRQAPGKERELVAAITSGGSTYYADSVKGRFTISRDNAKNTVYLQLNRLKPEDTAVYYRATRYHWSSSFAPVGAYGYWGQGTQVTVSS | low polyreactivity
28 | QLQLEESGGGLVQAGGSLRLSCAASGSTFSRNAMGWYRQAPGNERELVAAITIRGGSTSYADSVKGRFTISRENAKNTVYLQMNSLKPEDTAVYYCYRQSRNAGGYYWGQGTQVTVSS | low polyreactivity
29 | QLQLEESLVGLVQAGGSHPLSCAATGITFFTYTIGWYRQAPGKERELVARIRWDGGSTYYADSVKGRFTISRDNAKNTVYLQMNSLKPEDTAVYYCAADYPYSTYDYWGQGTQVTVSS | low polyreactivity
30 | QLQLQESGGGLVQAVVDLRQSCAESVNIFRDYIMGCYRQAPGKELEFVAGIDRGANTNFADSEKGRFTISRDNAKNTVYLQMNSLKPEDTAVYYCAVHTAIVPEFIYWGLGTQVTVSS | low polyreactivity
31 | QLQLQESGSGLEQAGGSLRLSCASSGYISLGDNMGWYRQAPGKEREFVATISVGGITYYVDSVKGRFTISRDIAKNTVYLQRNSLNPEDTAVYYCADLDIYYFRYYYWGQGTQVTVSS | low polyreactivity
32 | QLQLVESGAGLVKAGGSLRISSAASGYTFGRNTMGCYRQAPGKERELVAAITRRGGSTNYADSVKGRFTISRDNAKNTVYLQMNSLKQEDTAVYYCARDYRSYTGSYDSSYDYWGQGTQVTVSS | high polyreactivity
33 | QLQLVESGGGLDQAGGSLRLRCASSARIFSGYAIGWYIKAPGKERELVAAITSRSGSTYYADSVKGRFTISRDNAKNSVYFQMNSLKPEDTAVYYCAAEYVRFYWYTSDYWGQGTQVTVSS | low polyreactivity
34 | QLQLVESGGGLGQAGGSLRLSCAASGSIFDHYAMGWYRQAPGKERELVASMSKCGGSTYYADSVKGRFTISRDNAKNTVYLQMNSLKPEDTAVYYCASKQYYRGHNYWGQGTQVTVSS | high polyreactivity
35 | QLQLVESGGGLVKAGGSLRLSCADSGLIFRNNCMGGYRHAPRKERELVAAISNRGGSTYYADSVKGRFTISRDNAKNTVYLQMNSLKPEDTAVYDCNAVASYSQGGYRYDYWGQGTQVTVSS | high polyreactivity
36 | QLQLVESGGGLVQAGASLRLSCADSRRIFDYNVMGRYIQAPGKEREVVADINGSGGGTNYEDSVKGRFTISRDNAKNTVYLQMNILKPEDTAVYYCNADSYEYHVPYYDYRYDYWGQGTQVTVSS | low polyreactivity
37 | QLQLVESGGGLVQAGGRLRLSCAASGGIFQTNAMGWYRQAPGKERELVAAISRSAGRTYYADSVKGRFTISRDNAKNTVYLQMTSLKPEDTAVYYCNALRGRFRFDYWGQGTQVTVSS | high polyreactivity
38 | QLQLVESGGGLVQAGGSHRLSCAASGSIFTGYAMGRSRQAPGKQREFVAAISWSGSSTYYADSVKGRFTISRDNGKNTVYVQMNSLKPEDTAVYYCNAVKGWWGYYSSVDFDYWGQGTQVTVSS | low polyreactivity
39 | QLQLVESGGGLVQAGGSLRITCAASGSTFYCYSMACYRQAPGKERALVARISSSSGRTYYADSVKGRFTISRDNAKNTVYLQMNLLKPEDTAVYYCAKYVYGKFDGVRYSYDYWGQGTQVTVSS | low polyreactivity
40 | QLQLVESGGGLVQAGGSLRLSCAASGFIFGLYDMGWYREATGKERELVAAISWSGGSTYYADSVKGRFTISRDNAKNTVYLQMNSLKPADTAVYYCNKDLYADGQYNYDYWGLGTQVTVSS | low polyreactivity
41 | QLQLVESGGGLVQAGGSLRLSCAASGFNFPANAMGCYRQAPGKEREFVAAITRRGGSTYYADSVKGRFTISRDYAKNPVYLQMNSLKPEDTAVYYCATYDPARSTQGYDYWGQGTQVTVSS | high polyreactivity
42 | QLQLVESGGGLVQAGGSLRLSCAASGFTFSDYARGWYRQAPGKERELVAAINTSGGSTYYADSVKGRFTISRDNAKNTVYLQMNSLKPEDTAVYYCAAKYASLDRRRRKYDYWGQGTQVTVSS | high polyreactivity
43 | QLQLVESGGGLVQAGGSLRLSCAASGIIFDGYSRGWYRQAPGKEREFVAAITSGGGSTSYADSVKGRFTISRDYAKNTVYLQMNSLKPEDTAVYYCAARSNRFYVRQRYGYWGQGTQVTVSS | high polyreactivity
